Data published in patent US20230192877A1 (NATIONAL INSTITUTES OF BIOMEDICAL INOVATION HEALTH AND …, published 2023).
Positions count from the first letter of the chain named.

T1: tumor necrosis factor receptor 2 (TNFR2) expressed on cells (human, UniProt P20333 23-461)
T1 construct: whole, on cells; also called human TNFR2; TNFRSF1B
T1 sequence (looked up): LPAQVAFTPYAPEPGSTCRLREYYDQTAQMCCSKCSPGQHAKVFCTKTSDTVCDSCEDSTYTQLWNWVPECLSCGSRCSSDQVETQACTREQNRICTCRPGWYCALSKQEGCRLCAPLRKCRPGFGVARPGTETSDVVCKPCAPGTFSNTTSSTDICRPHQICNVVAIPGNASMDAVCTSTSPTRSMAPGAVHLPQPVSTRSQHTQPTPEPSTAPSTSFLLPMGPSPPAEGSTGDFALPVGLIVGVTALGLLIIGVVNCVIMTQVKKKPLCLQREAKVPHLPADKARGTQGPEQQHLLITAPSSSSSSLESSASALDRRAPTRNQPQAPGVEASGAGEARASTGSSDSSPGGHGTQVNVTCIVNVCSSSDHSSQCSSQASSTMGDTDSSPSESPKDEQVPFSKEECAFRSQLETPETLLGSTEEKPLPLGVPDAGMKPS

T2: TNFR2 monomeric antigen (UniProt P20333 23-257, limits assumed)
T2 construct: extracellular domain
T2 sequence (looked up): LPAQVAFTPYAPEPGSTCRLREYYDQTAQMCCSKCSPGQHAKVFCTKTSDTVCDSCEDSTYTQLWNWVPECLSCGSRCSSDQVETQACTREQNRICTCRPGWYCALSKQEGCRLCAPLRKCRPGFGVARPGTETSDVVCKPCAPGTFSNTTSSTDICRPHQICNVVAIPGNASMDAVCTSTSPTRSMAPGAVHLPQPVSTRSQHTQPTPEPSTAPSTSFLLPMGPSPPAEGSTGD

B1: Bp109-45 epitope region-bridging biparatopic antibody (bispecific antibody, V domains shown)
VH 1: QVQLKESGPGLVAPSQSLSITCTVSGFSLTVYGVNWVRQPPGKGLEWLGMIWGDGSTAYNSALKSRLTITKDNSKTQVFLKMNSLQTDDTARYYCARDGRRYALDYWGQGTSVTVSS
VL 1: DIVLTQSPTSLAVSLGQRATISCRASESVDSYGDSFLHWYQQKPGQPPILLIYRASNLDSGIPARFSGSGSRTDFTLTINPVEADDVATYYCQQSNEDPYTFGGGTKLEINR
VH 2: EVQLQQSGPEMEKPGASVKISCKASGYSFTGYNMNWVKQSIGKSLEWIGKIDPYYGGTDYNLRFKDKATLTVDKSSSTAYMHLSRLTSEDSAVYYCAREPNYGSNDWYFDVWGAGTTVTVSS
VL 2: DIQVTQTTSSLSASLGDRVTISCRASQDIDNYLNWYQQRPDGTVKLLIYYTSILHSGVPSRFSGSGSRTDFSLTISSLEEEDFATYFCQQGNTLPWTFGGGTKLEFKR
notes: N side Fab joined by split-intein trans-splicing to hinge and hole Fc; C side VH-CH1-hinge-knob Fc plus light chain; Human IgG1 constant regions
B2: Bp96-92 epitope region-bridging biparatopic antibody (bispecific antibody, V domains shown)
VH 1: EVQLQQSGAELVKPGASVKLSCTPSGFNIKDTYMHWVKQRPEQGLEWIGRIDPANGYTEYDPKFQDKATITADTSSNTAYLQLSSLTSEDTAVYYCADTQLYYWGQGTTLTVSS
VL 1: QIVLTQSPAIMSASLGERVTMTCTASSSVSSTYLHWYQQKPGSSPKLWIYSTSNLASGVPARFSGSGSGTSYSLTISNMEAEDAATYYCHQYHRSPLTFGAGTKLELKR
VH 2: KVQLQQSGAELVKPGASVKLSCKASGYTFTESIIHWVKQRSGQGLEWIGWFYPGSDNINYNEKFKDKATLTADKSSSTVYMELTRLTSEDSAVYFCASHEGPYVYFDYWGQGTTLTVSS
VL 2: DIVMTQSHKFMSTSVGDRVSITCKASQDVSTAVAWYQQKPGQSPKLLIYWTSTRHTGVPDRFTGSGSGTDYTLTISSVQAEDLALYYCQHHYSTPYTFGGGTKLEIQR
notes: as for B1
B3: Bp45-94 epitope region-bridging biparatopic antibody (bispecific antibody, V domains shown)
VH 1: B1 VH 2
VL 1: B1 VL 2
VH 2: QVQLQQSGAELARPGTSVKLSCKASGYTFTSYWMQWVKQTPGQGLEWIGAIYPGDGDSRYIQKFKGKATLTADKSSSTAYMQLSSLASEDSAVYYCARDGNYYAMDYWGQGTSVTVSS
VL 2: B2 VL 1 with M21I, N78S, L97P
notes: as for B1
B4: Bp45-92 epitope region-bridging biparatopic antibody (bispecific antibody, V domains shown)
VH 1: B1 VH 2
VL 1: B1 VL 2
VH 2: B2 VH 2
VL 2: B2 VL 2
notes: The N side Fab (VH-CH1 plus light chain) is joined by Cfa DnaE split-intein trans-splicing to the hinge and hole Fc; The C side is VH-CH1-hinge-knob Fc plus light chain; Human IgG1 constant regions
B5: Bp109-96 epitope region-bridging biparatopic antibody (bispecific antibody, V domains shown)
VH 1: B1 VH 1
VL 1: B1 VL 1
VH 2: B2 VH 1
VL 2: B2 VL 1
notes: as for B1
B6: Bp109-94 epitope region-bridging biparatopic antibody (bispecific antibody, V domains shown)
VH 1: B1 VH 1
VL 1: B1 VL 1
VH 2: B3 VH 2
VL 2: B2 VL 1 with M21I, N78S, L97P
notes: as for B1

Target: T1, tumor necrosis factor receptor 2 …
Test: flow cytometry on TNFR2-expressing Ramos-Blue cells, anti-human IgG-PE
Method: Subsequently, binding affinity of each antibody was evaluated using Ramos-Blue reporter cells expressing TNFR2. Each antibody was added at concentrations of 0.01, 0.1, 1, 10, 100, 1000, 10000, and 100000 ng/mL to the TNFR2-Ramos-Blue cells used in a reporter assay, and the cells were incubated for 1 hour on ice. After centrifugation for 5 minutes at 1200 rpm, the supernatant was removed. After washing once with a FACS buffer, anti-human IgG-PE was added to each well. The samples were left standing for 30 minutes away from light on ice. After centrifugation for 5 minutes at 1200 rpm, the supernatant was removed. After washing once with a FACS buffer, fluorescence was analyzed with a flow cytometer (FCM). The mean value of fluorescence intensity was used as a value corresponding to the amount of binding. Experiments were independently conducted twice under the same condition.

| Binder | binding result |
| --- | --- |
| B1 | binds |
| B2 | binds |
| B3 | binds |
| B4 | binds |
| B5 | binds |
| B6 | binds |

Target: T2, TNFR2 monomeric antigen
Test: SPR (BIAcore T200), antibody captured with human antibody capture kit, monomeric antigen as analyte
Method: Binding kinetics analysis and evaluation of each antibody to a monomeric antigen and dimeric antigen were conducted through surface plasmon resonance (SPR) using BIAcore T200 system (GE Healthcare). Monomeric and dimeric antigens were prepared. The affinity of each antibody to the monomeric and dimeric antigens was evaluated to study the presence/absence of intramolecular bridging activity. The SPR technology is based on measuring the index of refraction near the surface of a gold coated biosensor chip. A change in the index of refraction indicates a change in mass on the surface due to an interaction between an immobilized antibody and a monomeric or dimeric antigen infused into the solution. The mass increases when a molecule binds to an antibody immobilized on the surface, whereas the mass decreases when an analyte dissociates from an immobilized antibody. Analysis of a biparatopic antibody and the original monoclonal antibody by SPR can not only evaluate the performance of each antibody, but also see the effect of multivalent bond.
The monomeric and dimeric antigens were prepared as shown in the schematic diagram of FIG. 8. First, an etanercept (Pfizer), which is an Fc fusion protein of a TNFR2 extracellular region, was prepared, and a TNFR2 antigen molecule was obtained by enzymatic degradation and reductive re-oxidation reaction. An antibody was immobilized on a sensor chip using a human antibody capture kit according to the protocol by using a BIAcore T200 system (GE Healthcare). The interaction was analyzed by using the two types of antigens described above as analytes.

| binding result | Binder |
| --- | --- |
| binds | B1 |
| binds | B2 |
| binds | B3 |
| binds | B5 |
| binds | B6 |
